Where a chain is given by its changes, count along the chain named. Numbers in names are those of the source.
B1: NΔ78: N-terminal deletion of E. coli DNA ligase LigA eliminating domain Ia (protein, UniProt P15042 79-671, looked up, fragment)
chain: MLSLDNVFDEESFLAFNKRVQDRLKNNEKVTWCCELKLDGLAVSILYENGVLVSAATRGDGTTGEDITSNVRTIRAIPLKLHGENIPARLEVRGEVFLPQAGFEKINEDARRTGGKVFANPRNAAAGSLRQLDPRITAKRPLTFFCYGVGVLEGGELPDTHLGRLLQFKKWGLPVSDRVTLCESAEEVLAFYHKVEEDRPTLGFDIDGVVIKVNSLAQQEQLGFVARAPRWAVAFKFPAQEQMTFVRDVEFQVGRTGAITPVARLEPVHVAGVLVSNATLHNADEIERLGLRIGDKVVIRRAGDVIPQVVNVVLSERPEDTREVVFPTHCPVCGSDVERVEGEAVARCTGGLICGAQRKESLKHFVSRRAMDVDGMGDKIIDQLVEKEYVHTPADLFKLTAGKLTGLERMGPKSAQNVVNALEKAKETTFARFLYALGIREVGEATAAGLAAYFGTLEALEAASIEELQKVPDVGIVVASHVHNFFAEESNRNVISELLAEGVHWPAPIVINAEEIDSPFAGKTVVLTGSLSQMSRDDAKARLVELGAKVAGSVSKKTDLVIAGEAAGSKLAKAQELGIEVIDEAEMLRLLGS
B2: NΔ38: N-terminal deletion of E. coli DNA ligase LigA eliminating part of domain Ia (protein, UniProt P15042 39-671, looked up, fragment)
chain: MRELRELETKHPELITPDSPTQRVGAAPLAAFSQIRHEVPMLSLDNVFDEESFLAFNKRVQDRLKNNEKVTWCCELKLDGLAVSILYENGVLVSAATRGDGTTGEDITSNVRTIRAIPLKLHGENIPARLEVRGEVFLPQAGFEKINEDARRTGGKVFANPRNAAAGSLRQLDPRITAKRPLTFFCYGVGVLEGGELPDTHLGRLLQFKKWGLPVSDRVTLCESAEEVLAFYHKVEEDRPTLGFDIDGVVIKVNSLAQQEQLGFVARAPRWAVAFKFPAQEQMTFVRDVEFQVGRTGAITPVARLEPVHVAGVLVSNATLHNADEIERLGLRIGDKVVIRRAGDVIPQVVNVVLSERPEDTREVVFPTHCPVCGSDVERVEGEAVARCTGGLICGAQRKESLKHFVSRRAMDVDGMGDKIIDQLVEKEYVHTPADLFKLTAGKLTGLERMGPKSAQNVVNALEKAKETTFARFLYALGIREVGEATAAGLAAYFGTLEALEAASIEELQKVPDVGIVVASHVHNFFAEESNRNVISELLAEGVHWPAPIVINAEEIDSPFAGKTVVLTGSLSQMSRDDAKARLVELGAKVAGSVSKKTDLVIAGEAAGSKLAKAQELGIEVIDEAEMLRLLGS
B3: Y35A: E. coli LigA with Tyr35 replaced by alanine (protein, UniProt P15042 1-671, looked up, variant Y35A)
DNA ligase: MESIEQQLTELRTTLRHHEYLYHVMDAPEIPDAEADRLMRELRELETKHPELITPDSPTQRVGAAPLAAFSQIRHEVPMLSLDNVFDEESFLAFNKRVQDRLKNNEKVTWCCELKLDGLAVSILYENGVLVSAATRGDGTTGEDITSNVRTIRAIPLKLHGENIPARLEVRGEVFLPQAGFEKINEDARRTGGKVFANPRNAAAGSLRQLDPRITAKRPLTFFCYGVGVLEGGELPDTHLGRLLQFKKWGLPVSDRVTLCESAEEVLAFYHKVEEDRPTLGFDIDGVVIKVNSLAQQEQLGFVARAPRWAVAFKFPAQEQMTFVRDVEFQVGRTGAITPVARLEPVHVAGVLVSNATLHNADEIERLGLRIGDKVVIRRAGDVIPQVVNVVLSERPEDTREVVFPTHCPVCGSDVERVEGEAVARCTGGLICGAQRKESLKHFVSRRAMDVDGMGDKIIDQLVEKEYVHTPADLFKLTAGKLTGLERMGPKSAQNVVNALEKAKETTFARFLYALGIREVGEATAAGLAAYFGTLEALEAASIEELQKVPDVGIVVASHVHNFFAEESNRNVISELLAEGVHWPAPIVINAEEIDSPFAGKTVVLTGSLSQMSRDDAKARLVELGAKVAGSVSKKTDLVIAGEAAGSKLAKAQELGIEVIDEAEMLRLLGS
B4: D36A: E. coli LigA with Asp36 replaced by alanine (protein, UniProt P15042 1-671, looked up, variant D36A)
DNA ligase: B3 DNA ligase with A35Y, D36A

Key:
E. coli LigA [1] = assay type: biochemical; settings: qualitative
E. coli LigA [2] = molecular target: E. coli LigA (Escherichia coli, UniProt P15042); assay type: biochemical
Protocol: (§1) Reaction mixtures containing 1 pmol of ^32P-labeled nicked DNA-adenylate (AppDNA) and either 8 pmol of wild-type (WT) E. coli ligase, deletion mutants NΔ38 and NΔ78, or the full-length ligase proteins containing the indicated alanine mutations in domain Ia were incubated for 60 min at 22° C. The reaction products were resolved by denaturing PAGE. An autoradiograph of the gel is shown. Control reaction mixtures containing either ^32P-labeled nicked DNA-adenylate (AppDNA) or nicked DNA (pDNA) substrates and no ligase are shown in lanes -. The positions of the pDNA, AppDNA, and ligated 36-mer DNA strands are indicated by arrows on the right. The position of the radiolabeled phosphate of AppDNA is denoted by •. The nicked DNA-adenylate substrate used in the ligation reactions is illustrated at the bottom.
(§2) The nicked DNA-adenylate substrate is illustrated in FIG. 13. The DNA-adenylate ligation reaction mixtures (20 μl) contained 50 mM Tris-HCl (pH 7.5), 5 mM DTT, 5 mM MgCl2, 200 fmol of nicked DNA-adenylate substrate, 2 pmol of wild-type or mutant EcoLigA proteins as specified were incubated at 22° C. The sealing reactions were initiated by adding ligase. Aliquots (20 μl) were withdrawn at the times specified and quenched immediately with EDTA and formamide. The products were resolved by denaturing PAGE and the extents of ligation were determined by scanning the gel with a phosphorimager. The extent of strand joining is plotted as a function of reaction time.
(§3) The third step of the ligation pathway entails attack of the 3′ OH of the nick on the 5′ PO4 of the DNA-adenylate to form a phosphodiester and release AMP. Step 3 of the ligation reaction was assayed using a pre-adenylated nicked DNA substrate labeled with ^32P on the 5′ PO4 of the DNA-adenylate strand (FIG. 13).

E. coli LigA [3] = assay type: biochemical; settings: for phosphodiester formation at pre-adenylated nick: qualitative, magnesium, no added NAD+
Protocol: as §1, §2, §3

E. coli LigA [4] = settings: reference 19; cited from earlier work
E. coli LigA [5] = assay type: biochemical; settings: for Nick Joining Activity (% of WT): specific activity by protein titration under steady-state conditions, normalized to wild-type ligase

Molecule | ligase adenylation (ligase-AMP formation) with NAD+ (E. coli LigA [1]) | effect on the rate of approach to the endpoint of step 3 reaction (E. coli LigA [2]) [fold] | phosphodiester formation at pre-adenylated nick (E. coli LigA [3]) | nick joining activity (prior studies) (E. coli LigA [4]) | effect on rate or extent (yield) of phosphodiester formation at a pre-adenylated nick (E. coli LigA [3]) | Nick Joining Activity (% of WT) (E. coli LigA [5]) | nick ligation (qualitative) (E. coli LigA [5])
B1 | inert | 2 | capable of forming a phosphodiester bond | complete loss |  |  | 
B2 | inert |  | capable of forming a phosphodiester bond | complete loss | no effect |  | 
B3 | less active |  | catalytically active |  |  | 2 % of WT | 
B4 | virtually inert |  | catalytically active |  | no effect | 0.2 % of WT | virtually inert

Reference: patent publication US6787341B2, “Pharmacological targeting of bacterial DNA ligase for treatment and prevention of bacterial infections” (priority 2001, dated 2004)
